{"source": "the RNAGym collection of RNA variant scans (doi:10.1073/pnas.2313332121)", "parents": {"B1": {"name": "TPR t1 (parent)", "chain": "GACCAAUCUGCCCUCAGAGCUCGAGAACAUCUUCGGAUGCAGAGGAGGCAGGCUUCGGUGGCGCGAUAGCGCCAACGUCCUCAACCUCCAAUGCAUCCCACCACAUGAUGAUGCCUGAAGAGCCUUGGUUUUUUG"}}, "data": [{"variants_of": "B1", "experiment": "polymerase ribozyme fitness, log enrichment relative to wild type (log ratio); higher = more active; in vitro selection for triplet polymerase activity", "summary_of_the_method": "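A single round of triplicate in vitro selection, including frozen incubation at −7 °C, was applied to PCR-built, transcribed mutant libraries of each subunit of a heterodimeric triplet polymerase ribozyme. Illumina sequencing of input and output libraries retained genotypes with ≥10 input reads and ≥1 read per output. Fitness is the base-2 logarithm of genotype enrichment divided by wild-type enrichment, from inverse-variance-weighted replicate averages.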", "values": [{"variant": "G45U G57U A118U", "polymerase ribozyme fitness (log ratio)": -0.288}, {"variant": "A46C C101G", "polymerase ribozyme fitness (log ratio)": -2.34}, {"variant": "A46C C80A", "polymerase ribozyme fitness (log ratio)": -3.23}, {"variant": "A46G A74U G77A G113U", "polymerase ribozyme fitness (log ratio)": -3.68}, {"variant": "G45U C49U C115G", "polymerase ribozyme fitness (log ratio)": -3.11}, {"variant": "G45U G128U", "polymerase ribozyme fitness (log ratio)": -2.42}, {"variant": "G45U A84C C94A", "polymerase ribozyme fitness (log ratio)": -2.59}, {"variant": "G45U C73U", "polymerase ribozyme fitness (log ratio)": -1.98}, {"variant": "G45U C73G", "polymerase ribozyme fitness (log ratio)": -0.942}, {"variant": "G45U U129G", "polymerase ribozyme fitness (log ratio)": -2.58}, {"variant": "G45U C49U", "polymerase ribozyme fitness (log ratio)": -1.85}, {"variant": "G45U C94U", "polymerase ribozyme fitness (log ratio)": -1.46}, {"variant": "G45U C94A", "polymerase ribozyme fitness (log ratio)": -1.66}, {"variant": "G45U C72A C114A C123G U133A", "polymerase ribozyme fitness (log ratio)": -2.6}, {"variant": "G45U G127U", "polymerase ribozyme fitness (log ratio)": -3}, {"variant": "G45U A66G", "polymerase ribozyme fitness (log ratio)": -2.32}, {"variant": "G45U G63A U131A", "polymerase ribozyme fitness (log ratio)": -1.33}, {"variant": "G45U U116A", "polymerase ribozyme fitness (log ratio)": -4.04}, {"variant": "G45U U116C", "polymerase ribozyme fitness (log ratio)": -1.67}, {"variant": "G45U G47U G113A", "polymerase ribozyme fitness (log ratio)": -3.45}, {"variant": "A46C C72U U78C G93U G122A U133G", "polymerase ribozyme fitness (log ratio)": -3.05}, {"variant": "G45U G71C", "polymerase ribozyme fitness (log ratio)": -2.68}, {"variant": "G45U G61C A66U", "polymerase ribozyme fitness (log ratio)": -3.49}, {"variant": "G45U A74C A108G", "polymerase ribozyme fitness (log ratio)": -3.25}, {"variant": "A46G A121U U126A", "polymerase ribozyme fitness (log ratio)": 0.577}, {"variant": "G45U U109A", "polymerase ribozyme fitness (log ratio)": -6.02}, {"variant": "A46C G63U", "polymerase ribozyme fitness (log ratio)": -2.01}, {"variant": "A46G C56U", "polymerase ribozyme fitness (log ratio)": -0.0715}, {"variant": "A46G C56A", "polymerase ribozyme fitness (log ratio)": -0.525}, {"variant": "A46G C56G", "polymerase ribozyme fitness (log ratio)": 0.084}, {"variant": "G45U C49U G61A C115G", "polymerase ribozyme fitness (log ratio)": -2.62}, {"variant": "A46C U78A", "polymerase ribozyme fitness (log ratio)": -0.208}, {"variant": "G45U C53U G61A A105U", "polymerase ribozyme fitness (log ratio)": -2.59}, {"variant": "A46C C86U C88A A121C U130C", "polymerase ribozyme fitness (log ratio)": 0.304}, {"variant": "A46C G120A U126A", "polymerase ribozyme fitness (log ratio)": -0.908}, {"variant": "A46C U92C U106G C115U U125G U132A", "polymerase ribozyme fitness (log ratio)": -6.92}, {"variant": "G45U C94U A111U G127U", "polymerase ribozyme fitness (log ratio)": -3.61}, {"variant": "G45U G63C C104U", "polymerase ribozyme fitness (log ratio)": -0.927}, {"variant": "G45U U81A", "polymerase ribozyme fitness (log ratio)": -3.03}, {"variant": "A46G C56A C62G U130G U131C", "polymerase ribozyme fitness (log ratio)": -4.26}, {"variant": "A46C U92C", "polymerase ribozyme fitness (log ratio)": -1.97}, {"variant": "G45U C89U U96A C114U C124G", "polymerase ribozyme fitness (log ratio)": -2.49}, {"variant": "A46C C49A G63A", "polymerase ribozyme fitness (log ratio)": -0.445}, {"variant": "G45U C62U U78G C101A G122A", "polymerase ribozyme fitness (log ratio)": -3.21}, {"variant": "A46C C72A C123U", "polymerase ribozyme fitness (log ratio)": 0.713}, {"variant": "A46C C56U C72U U78A A90G C94U A111C", "polymerase ribozyme fitness (log ratio)": -0.367}, {"variant": "A46C C76G G122A", "polymerase ribozyme fitness (log ratio)": -1.33}, {"variant": "A46C G48A G51A", "polymerase ribozyme fitness (log ratio)": -3.51}, {"variant": "G45U G63A C79A A83G", "polymerase ribozyme fitness (log ratio)": -6.05}, {"variant": "G45U C88A U130G", "polymerase ribozyme fitness (log ratio)": -0.102}, {"variant": "A46C G117A", "polymerase ribozyme fitness (log ratio)": -2.35}, {"variant": "A46C A50G", "polymerase ribozyme fitness (log ratio)": -0.277}, {"variant": "G45U U78C C79A C123A U126C", "polymerase ribozyme fitness (log ratio)": -3.45}, {"variant": "G45U C64A A111U U133A", "polymerase ribozyme fitness (log ratio)": -5.34}, {"variant": "A46C C79U C101U G113U", "polymerase ribozyme fitness (log ratio)": -4.4}, {"variant": "G45U C56G", "polymerase ribozyme fitness (log ratio)": -2.16}, {"variant": "G45U C56U", "polymerase ribozyme fitness (log ratio)": -1.13}, {"variant": "A46C G47U", "polymerase ribozyme fitness (log ratio)": -5.94}, {"variant": "A46C U81A G93U", "polymerase ribozyme fitness (log ratio)": -2.96}, {"variant": "A46G A74G U92C", "polymerase ribozyme fitness (log ratio)": -0.91}, {"variant": "A46C A74U", "polymerase ribozyme fitness (log ratio)": -0.673}, {"variant": "A46C G61A C80A", "polymerase ribozyme fitness (log ratio)": -3.96}, {"variant": "G45U G77C", "polymerase ribozyme fitness (log ratio)": -1.17}, {"variant": "A46C C115G", "polymerase ribozyme fitness (log ratio)": -2.59}, {"variant": "A46C U87C C89G U92C", "polymerase ribozyme fitness (log ratio)": -2.75}, {"variant": "G45U C49U G69U A121U G128C", "polymerase ribozyme fitness (log ratio)": -1.32}, {"variant": "G45U C70A C85A A90U", "polymerase ribozyme fitness (log ratio)": -6.19}, {"variant": "G45U G60C U78G", "polymerase ribozyme fitness (log ratio)": -3.53}, {"variant": "G45U A95U", "polymerase ribozyme fitness (log ratio)": -1.69}, {"variant": "G45U G47C G52A A83U C124U", "polymerase ribozyme fitness (log ratio)": -3.57}, {"variant": "G45U G69A U78C U87G A111U", "polymerase ribozyme fitness (log ratio)": -6.45}, {"variant": "A46C C53A G60U C102U", "polymerase ribozyme fitness (log ratio)": -3.11}, {"variant": "G45U C70A", "polymerase ribozyme fitness (log ratio)": -2.74}, {"variant": "G45U G51U C62U U78C C80G", "polymerase ribozyme fitness (log ratio)": -4.39}, {"variant": "G45U G52U U54C G58C G60C", "polymerase ribozyme fitness (log ratio)": -0.884}, {"variant": "A46C C62G", "polymerase ribozyme fitness (log ratio)": -2.43}, {"variant": "A46C U125A", "polymerase ribozyme fitness (log ratio)": -1.48}, {"variant": "A46C C80G U130C", "polymerase ribozyme fitness (log ratio)": -6.42}, {"variant": "G45U U92C", "polymerase ribozyme fitness (log ratio)": -2.47}, {"variant": "G45U A68G", "polymerase ribozyme fitness (log ratio)": -4.43}, {"variant": "A46G A66G", "polymerase ribozyme fitness (log ratio)": -1.48}, {"variant": "A46G C49A C56A A66C", "polymerase ribozyme fitness (log ratio)": -2.64}, {"variant": "A46C G69C C85A", "polymerase ribozyme fitness (log ratio)": -3.49}, {"variant": "A46G C53G A111G", "polymerase ribozyme fitness (log ratio)": 1.36}]}]}
